Test results from US20160279215A1, “NOVEL PEPTIDES AND COMBINATION OF PEPTIDES FOR USE IN IMMUNOTHERAPY AGAINST VARIOUS TUMORS” (immatics biotechnologies GmbH, priority 2015, published 2016).

Target: T1, HLA-A*02:01 (Homo sapiens, UniProt P04439, D140Y/D185E/D98H/E176V/E277Q/G131W/G231S/I119V/I121R/I166T/I218V/L300P/L318F/N151K/N90K/P208A/P217A/Q86G/Q94H/R138H/R169H/T345S)
T1 construct: made in house
Assay: MHC binding assay: UV-ligand exchange with β2m ELISA (peptide exchange yield)
Settings: binding to HLA-A*02:01 evaluated by peptide exchange yield (UV-ligand exchange, β2m ELISA)
Excerpt: Candidate peptides for T cell based therapies according to the present invention were further tested for their MHC binding capacity (affinity). The individual peptide-MHC complexes were produced by UV-ligand exchange, where a UV-sensitive peptide is cleaved upon UV-irradiation, and exchanged with the peptide of interest as analyzed. Only peptide candidates that can effectively bind and stabilize the peptide-receptive MHC molecules prevent dissociation of the MHC complexes. To determine the yield of the exchange reaction, an ELISA was performed based on the detection of the light chain (β2m) of stabilized MHC complexes. The assay was performed as generally described in Rodenko et al. (Rodenko et al., 2006).
96 well MAXISorp plates (NUNC) were coated over night with 2 ug/ml streptavidin in PBS at room temperature, washed 4× and blocked for 1 h at 37° C. in 2% BSA containing blocking buffer. Refolded HLA-A*02:01/MLA-001 monomers served as standards, covering the range of 15-500 ng/ml. Peptide-MHC monomers of the UV-exchange reaction were diluted 100 fold in blocking buffer. Samples were incubated for 1 h at 37° C., washed four times, incubated with 2 ug/ml HRP conjugated anti-β2m for 1 h at 37° C., washed again and detected with TMB solution that is stopped with […]. Absorption was measured at 450 nm. Candidate peptides that show a high exchange yield (preferably higher than 50%, most preferred higher than 75%) are generally preferred for a generation and production of antibodies or fragments thereof, and/or T cell receptors or fragments thereof, as they show sufficient avidity to the MHC molecules and prevent dissociation of the MHC complexes.

Peptide exchange | Substance
++ (≧20% = ++) | 174 (ALYSGDLHAA; listed as Homo sapiens) [compound 174]
+++ (≧50 = +++) | 175 (SLLDLVQSL; listed as Homo sapiens) [compound 175]
++ (≧20% = ++) | 176 (VQSGLRILL; listed as Homo sapiens) [compound 176]
+++ (≧50 = +++) | 177 (ALINVLNAL; listed as Homo sapiens) [compound 177]
++++ (≧75% = ++++) | 178 (SLVSWQLLL; listed as Homo sapiens) [compound 178]
+++ (≧50 = +++) | 179 (TLGEIIKGV; listed as Homo sapiens) [compound 179]
+++ (≧50 = +++) | 180 (RLYEEEIRI; listed as Homo sapiens) [compound 180]
+++ (≧50 = +++) | 181 (LLWAPTAQA; listed as Homo sapiens) [compound 181]
+++ (≧50 = +++) | 182 (GLQDGFQITV; listed as Homo sapiens) [compound 182]
+++ (≧50 = +++) | 183 (ALSYILPYL; listed as Homo sapiens) [compound 183]
++ (≧20% = ++) | 184 (ALDSTIAHL; listed as Homo sapiens) [compound 184]
++ (≧20% = ++) | 185 (TLYQGLPAEV; listed as Homo sapiens) [compound 185]
++ (≧20% = ++) | 187 (SILKEDPFL; listed as Homo sapiens) [compound 187]
++ (≧20% = ++) | 188 (VLGEEQEGV; listed as Homo sapiens) [compound 188]
+++ (≧50 = +++) | 190 (SLSTELFKV; listed as Homo sapiens) [compound 190]
+++ (≧50 = +++) | 191 (AAIEIFEKV; listed as Homo sapiens) [compound 191]
++ (≧20% = ++) | 192 (TLLPSSGLVTL; listed as Homo sapiens) [compound 192]

Peptide exchange | Substance
+++ (≧50 = +++) | 193 (ALFHMNILL; listed as Homo sapiens) [compound 193]
++ (≧20% = ++) | 194 (KLLEEVQLL; listed as Homo sapiens) [compound 194]
+++ (≧50 = +++) | 195 (VIIQNLPAL; listed as Homo sapiens) [compound 195]
++ (≧20% = ++) | 198 (ILTNKVVSV; listed as Homo sapiens) [compound 198]
++ (≧20% = ++) | 199 (SVADLAHVL; listed as Homo sapiens) [compound 199]
+++ (≧50 = +++) | 200 (IMPTFDLTKV; listed as Homo sapiens) [compound 200]
++ (≧20% = ++) | 203 (FLFVDPELV; listed as Homo sapiens) [compound 203]
+++ (≧50 = +++) | 204 (SEWGSPHAAVP; listed as Homo sapiens) [compound 204]
++++ (≧75% = ++++) | 206 (GLDAFRIFL; listed as Homo sapiens) [compound 206]
+++ (≧50 = +++) | 207 (KLFETVEEL; listed as Homo sapiens) [compound 207]
++ (≧20% = ++) | 208 (HLNNDRNPL; listed as Homo sapiens) [compound 208]
+++ (≧50 = +++) | 210 (GLAGDNIYL; listed as Homo sapiens) [compound 210]
+++ (≧50 = +++) | 211 (LLTTVLINA; listed as Homo sapiens) [compound 211]
++ (≧20% = ++) | 212 (MTLSEIHAV; listed as Homo sapiens) [compound 212]
+++ (≧50 = +++) | 213 (ILAVDGVLSV; listed as Homo sapiens) [compound 213]
+++ (≧50 = +++) | 214 (ALFETLIQL; listed as Homo sapiens) [compound 214]
